These are literature values, as cited in article PMC5897016.

A value given as a limit tells only on which side of the number the result lay.

This series concerns the target Complement C5 (Homo sapiens) (UniProt P01031).

For orientation: Kd means the concentration at which binding is half-saturated. On to eculizumab, for which the Kd was less than 0.05 nM.
